One may read the Kd as the concentration at which binding is half-saturated. A word on the koff: it is the rate constant with which the complex falls apart. High values mean fast dissociation, low ones slow dissociation. A word on the kon: it is a measure of how fast the partners come together. A high value points to fast association.

Drawing on patent CN114106161A, this text covers Kd, koff and kon for one substance.

The target of the assay is SARS-CoV-2 S1蛋白 (ACRO Biosystems) (SARS-CoV-2) (UniProt P0DTC2). Put plainly: BLI, biotinylated SARS-CoV-2 S1 on SA sensor, 1:1 fit. In general terms: Biolayer interferometry detects binding as a change in optical thickness at a sensor tip.

Turning to “针对SARS-CoV和SARS-CoV-2S1的人源抗体CR3022 (antibody)”, the Kd came to 0.0866 nM, the off-rate constant (koff) was 1.9e-05 s⁻¹ and the on-rate (kon) amounted to 220000 M⁻¹ s⁻¹.
